The test concerns the target prp8_yeast PRP8 (UniProt P33334).

Chain of prp8_yeast PRP8 (P33334 whole entry): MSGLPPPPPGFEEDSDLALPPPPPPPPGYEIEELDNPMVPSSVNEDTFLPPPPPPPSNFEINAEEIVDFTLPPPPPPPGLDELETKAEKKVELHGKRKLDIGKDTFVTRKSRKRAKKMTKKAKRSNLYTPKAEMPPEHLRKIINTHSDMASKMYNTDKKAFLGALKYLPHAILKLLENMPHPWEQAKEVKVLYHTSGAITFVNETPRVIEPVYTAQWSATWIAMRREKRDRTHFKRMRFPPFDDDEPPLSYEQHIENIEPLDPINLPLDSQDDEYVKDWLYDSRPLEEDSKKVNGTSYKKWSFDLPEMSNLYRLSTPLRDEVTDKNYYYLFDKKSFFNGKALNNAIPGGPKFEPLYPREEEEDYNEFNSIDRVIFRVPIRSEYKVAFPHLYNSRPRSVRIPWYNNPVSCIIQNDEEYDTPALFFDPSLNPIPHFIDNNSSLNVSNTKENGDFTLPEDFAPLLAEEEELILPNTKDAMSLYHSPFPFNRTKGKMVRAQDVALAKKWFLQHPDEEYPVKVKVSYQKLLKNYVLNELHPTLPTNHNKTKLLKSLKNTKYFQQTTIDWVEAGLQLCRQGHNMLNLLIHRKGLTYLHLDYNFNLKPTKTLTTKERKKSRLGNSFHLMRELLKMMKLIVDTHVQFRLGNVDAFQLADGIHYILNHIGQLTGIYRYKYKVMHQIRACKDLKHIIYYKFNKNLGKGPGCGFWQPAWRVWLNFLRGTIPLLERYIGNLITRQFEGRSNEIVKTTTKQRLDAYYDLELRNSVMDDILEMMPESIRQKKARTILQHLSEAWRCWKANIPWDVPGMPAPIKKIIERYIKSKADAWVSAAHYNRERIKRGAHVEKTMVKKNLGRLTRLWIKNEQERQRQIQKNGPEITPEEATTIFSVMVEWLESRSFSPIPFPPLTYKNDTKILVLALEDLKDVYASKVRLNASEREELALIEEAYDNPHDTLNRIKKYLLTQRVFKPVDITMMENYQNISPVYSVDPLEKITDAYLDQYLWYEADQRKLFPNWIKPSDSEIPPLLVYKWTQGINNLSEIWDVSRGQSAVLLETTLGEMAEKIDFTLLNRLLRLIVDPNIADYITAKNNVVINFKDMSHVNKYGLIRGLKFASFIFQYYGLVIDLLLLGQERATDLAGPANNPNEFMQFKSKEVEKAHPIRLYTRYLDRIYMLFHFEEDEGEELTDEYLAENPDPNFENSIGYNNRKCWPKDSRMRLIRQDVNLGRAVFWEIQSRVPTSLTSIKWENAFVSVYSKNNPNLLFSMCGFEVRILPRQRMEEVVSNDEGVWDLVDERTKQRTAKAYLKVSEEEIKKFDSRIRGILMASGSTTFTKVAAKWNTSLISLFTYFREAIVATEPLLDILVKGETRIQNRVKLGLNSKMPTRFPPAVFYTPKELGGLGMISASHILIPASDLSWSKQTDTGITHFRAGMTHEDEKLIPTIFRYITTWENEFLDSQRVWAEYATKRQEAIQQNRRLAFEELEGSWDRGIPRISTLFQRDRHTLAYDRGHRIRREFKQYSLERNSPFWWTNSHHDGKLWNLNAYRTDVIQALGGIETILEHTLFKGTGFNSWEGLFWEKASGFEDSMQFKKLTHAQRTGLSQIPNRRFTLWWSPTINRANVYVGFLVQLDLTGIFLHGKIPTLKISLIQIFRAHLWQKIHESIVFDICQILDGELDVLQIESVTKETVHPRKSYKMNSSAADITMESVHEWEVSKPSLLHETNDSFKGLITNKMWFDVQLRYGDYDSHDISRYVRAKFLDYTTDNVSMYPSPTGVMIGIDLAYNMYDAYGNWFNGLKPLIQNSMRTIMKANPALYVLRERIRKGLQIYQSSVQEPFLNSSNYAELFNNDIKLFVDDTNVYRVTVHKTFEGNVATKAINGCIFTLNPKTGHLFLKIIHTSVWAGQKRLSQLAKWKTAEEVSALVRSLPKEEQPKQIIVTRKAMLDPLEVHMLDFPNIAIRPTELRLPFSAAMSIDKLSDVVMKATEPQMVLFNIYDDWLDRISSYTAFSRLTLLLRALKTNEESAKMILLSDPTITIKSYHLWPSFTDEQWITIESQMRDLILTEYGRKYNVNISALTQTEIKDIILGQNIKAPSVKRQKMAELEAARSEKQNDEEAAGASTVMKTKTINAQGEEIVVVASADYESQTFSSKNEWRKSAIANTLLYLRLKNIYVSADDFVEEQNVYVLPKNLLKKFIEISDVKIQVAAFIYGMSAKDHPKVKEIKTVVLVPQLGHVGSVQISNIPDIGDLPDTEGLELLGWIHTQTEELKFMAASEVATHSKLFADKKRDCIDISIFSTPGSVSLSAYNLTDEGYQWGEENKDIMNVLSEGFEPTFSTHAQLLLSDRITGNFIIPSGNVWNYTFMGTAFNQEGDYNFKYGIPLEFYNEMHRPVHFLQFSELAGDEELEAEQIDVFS

Take “Pre-mRNA-splicing helicase BRR2 (Saccharomyces cerevisiae), P32639 D1247A;D1249A”: the “effect of a mutation on the interaction” value is given as “decreasing interaction strength”.
